Results published in PMC4605305, “TRAP150 interacts with the RNA-binding domain of PSF and antagonizes splicing of numerous PSF-target genes in T cells” (Nucleic Acids Research, 2015).

Columns and labels:
[1] = target: T1, HisFLAG-PSF exRRMs (266-484) (UniProt P23246 266-484); assay: pull-down; 40 ug GST-tagged bait on glutathione sepharose 4B beads; prey incubated 1.5 h at 4°C in PBS; washes with PBS supplemented with 300 mM NaCl; western blot; conditions: both partners purified
T1 construct: also called HisFLAG-exRRMs; HFexRRM1+2; source: E. coli Rosetta(DE3)pLysS, purified (Ni-NTA, SEC); not shown: His6, N-terminal, kept; FLAG, N-terminal, kept
T1 sequence (looked up): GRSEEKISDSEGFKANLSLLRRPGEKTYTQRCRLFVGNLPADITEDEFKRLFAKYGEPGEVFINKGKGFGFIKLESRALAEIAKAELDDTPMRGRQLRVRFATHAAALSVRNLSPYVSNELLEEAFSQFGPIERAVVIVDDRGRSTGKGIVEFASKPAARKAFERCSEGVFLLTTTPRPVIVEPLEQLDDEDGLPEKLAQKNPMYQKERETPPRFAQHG

[2] = target: T2, GST-TRAPΔN (TRAP150 266-955) (UniProt Q9Y2W1 266-955); assay: as above; conditions: both partners purified
T2 construct: pGEX-6-P1; also called GST-TRAP150ΔN; TRAP150-ΔN; source: E. coli Rosetta(DE3)pLysS, purified (glutathione sepharose, SEC); not shown: GST, N-terminal, kept
T2 sequence (looked up): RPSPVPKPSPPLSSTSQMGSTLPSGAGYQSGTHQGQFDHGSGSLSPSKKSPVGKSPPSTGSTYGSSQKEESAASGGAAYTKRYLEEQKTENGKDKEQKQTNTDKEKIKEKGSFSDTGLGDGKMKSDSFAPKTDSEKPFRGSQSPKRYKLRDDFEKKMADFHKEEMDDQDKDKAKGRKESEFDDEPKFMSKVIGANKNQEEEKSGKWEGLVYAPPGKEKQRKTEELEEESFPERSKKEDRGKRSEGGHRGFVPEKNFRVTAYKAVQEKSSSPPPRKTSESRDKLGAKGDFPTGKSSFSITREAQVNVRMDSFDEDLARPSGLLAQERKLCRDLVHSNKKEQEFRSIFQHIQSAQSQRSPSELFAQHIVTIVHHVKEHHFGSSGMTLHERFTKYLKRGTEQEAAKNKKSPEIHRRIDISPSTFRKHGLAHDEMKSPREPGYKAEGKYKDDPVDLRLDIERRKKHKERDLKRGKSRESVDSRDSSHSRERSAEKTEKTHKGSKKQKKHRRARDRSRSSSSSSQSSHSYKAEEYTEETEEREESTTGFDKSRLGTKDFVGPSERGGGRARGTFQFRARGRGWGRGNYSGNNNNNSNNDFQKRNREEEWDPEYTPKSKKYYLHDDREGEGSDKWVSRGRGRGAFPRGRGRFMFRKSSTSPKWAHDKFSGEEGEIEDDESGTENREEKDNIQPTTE

B1: GST-TRAP150 580–755 (domain or fragment, UniProt Q9Y2W1 580-755, looked up)
chain: LARPSGLLAQERKLCRDLVHSNKKEQEFRSIFQHIQSAQSQRSPSELFAQHIVTIVHHVKEHHFGSSGMTLHERFTKYLKRGTEQEAAKNKKSPEIHRRIDISPSTFRKHGLAHDEMKSPREPGYKAEGKYKDDPVDLRLDIERRKKHKERDLKRGKSRESVDSRDSSHSRERSAE
notes: source: E. coli Rosetta(DE3)pLysS, purified (glutathione sepharose, SEC); not shown: GST, N-terminal, kept
B1: binds [1].

B2: HisFLAG-PSF ΔRRM1 (natural protein)
chain: MSRDRFRSRGGGGGGFHRRGGGGGRGGLHDFRSPPPGMGLNQNRGPMGPGPGQSGPKPPIPPPPPHQQQQQPPPQQPPPQQPPPHQPPPHPQPHQQQQPPPPPQDSSKPVVAQGPGPAPGVGSAPPASSSAPPATPPTSGAPPGSGPGPTPTPPPAVTSAPPGAPPPTPPSSGVPTTPPQAGGPPPPPAAVPGPGPGPKQGPGPGGPKGGKMPGGPKPGGGPGLSTPGGHPKPPHRGGGEPRGGRQHHPPYHQQHHQGPPPGGPGGRSEEKISDSEGFKANLSLLRRPGEKTYTQRCRGGSGHMATHAAALSVRNLSPYVSNELLEEAFSQFGPIERAVVIVDDRGRSTGKGIVEFASKPAARKAFERCSEGVFLLTTTPRPVIVEPLEQLDDEDGLPEKLAQKNPMYQKERETPPRFAQHGTFEYEYSQRWKSLDEMEKQQREQVEKNMKDAKDKLESEMEDAYHEHQANLLRQDLMRRQEELRRMEELHNQEMQKRKEMQLRQEEERRRREEEMMIRQREMEEQMRRQREESYSRMGYMDPRERDMRMGGGGAMNMGDPYGSGGQKFPPLGGGGGIGYEANPGVPPATMSGSMMGSDMRTERFGQGGAGPVGGQGPRGMGPGTPAGYGRGREEYEGPNKKPRF
notes: PSF (SFPQ) residues 1-298; linker joining the N- and C-terminal portions; PSF (SFPQ) residues 367-707; source: E. coli Rosetta(DE3)pLysS, purified (Ni-NTA, SEC); not shown: His6, N-terminal, kept; FLAG, N-terminal, kept
B2: binds [2].

B3: GST-TRAP150 686–755 (PSF-interacting domain, PID) (domain or fragment, UniProt Q9Y2W1 686-755, looked up)
chain: FRKHGLAHDEMKSPREPGYKAEGKYKDDPVDLRLDIERRKKHKERDLKRGKSRESVDSRDSSHSRERSAE
notes: also called GST-TRAP(PID); TRAP150 PID; source: E. coli Rosetta(DE3)pLysS, purified (glutathione sepharose, SEC); not shown: GST, N-terminal, kept
B3: binds [1].

B4: HisFLAG-PSF ΔRRM2 (natural protein)
chain: MSRDRFRSRGGGGGGFHRRGGGGGRGGLHDFRSPPPGMGLNQNRGPMGPGPGQSGPKPPIPPPPPHQQQQQPPPQQPPPQQPPPHQPPPHPQPHQQQQPPPPPQDSSKPVVAQGPGPAPGVGSAPPASSSAPPATPPTSGAPPGSGPGPTPTPPPAVTSAPPGAPPPTPPSSGVPTTPPQAGGPPPPPAAVPGPGPGPKQGPGPGGPKGGKMPGGPKPGGGPGLSTPGGHPKPPHRGGGEPRGGRQHHPPYHQQHHQGPPPGGPGGRSEEKISDSEGFKANLSLLRRPGEKTYTQRCRLFVGNLPADITEDEFKRLFAKYGEPGEVFINKGKGFGFIKLESRALAEIAKAELDDTPMRGRQLRVRFATHAGGSGHMLEQLDDEDGLPEKLAQKNPMYQKERETPPRFAQHGTFEYEYSQRWKSLDEMEKQQREQVEKNMKDAKDKLESEMEDAYHEHQANLLRQDLMRRQEELRRMEELHNQEMQKRKEMQLRQEEERRRREEEMMIRQREMEEQMRRQREESYSRMGYMDPRERDMRMGGGGAMNMGDPYGSGGQKFPPLGGGGGIGYEANPGVPPATMSGSMMGSDMRTERFGQGGAGPVGGQGPRGMGPGTPAGYGRGREEYEGPNKKPRF
notes: PSF (SFPQ) residues 1-370; linker joining the N- and C-terminal portions; PSF (SFPQ) residues 450-707; source: E. coli Rosetta(DE3)pLysS, purified (Ni-NTA, SEC); not shown: His6, N-terminal, kept; FLAG, N-terminal, kept
B4: binds [2].
